Test results reported in the supplement of paper PMC10567573.

B1: NP_009172.2 (parent)
chain: LPALFTDLYSQEITAEEAREALP

Variants of: B1
Assay: protein stability index of a GFP-peptide fusion (GPS, HEK-293T) (PSI 1-6); higher = more stable
Conditions: c terminus: native
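Note: lentivirally expressed fusion library, cells FACS-sorted into six equal-sized GFP/DsRed ratio bins, PSI computed from sequencing read fractions per bin weighted by bin number.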

Variant	protein stability index
LPALFTDLYSQEITIEEAREALP [A15I]	2.76
LPALFTDLYSQEITNEEAREALP [A15N]	2.66
LPALFTDLYSQEITGEEAREALP [A15G]	2.83
LPALFTDLYSQEITLEEAREALP [A15L]	2.53
LPALFTDLYSQEITVEEAREALP [A15V]	2.78
LPALFTDLYSQEITCEEAREALP [A15C]	3
LPALFTDLYSQEITAEFAREALP [E17F]	2.38
LPALFTDLYSQEITAENAREALP [E17N]	2.5
LPALFTDLYSQEITAEAAREALP [E17A]	2.39
LPALFTDLYSQEITAEDAREALP [E17D]	2.71
LPALFTDLYSQEITAEHAREALP [E17H]	2.2
LPALFTDLYSQEITAEGAREALP [E17G]	2.21
LPALFTDLYSQEITAEVAREALP [E17V]	2.43
LPALFTDLYSQEITAEYAREALP [E17Y]	2.32
LPALFTDLYSQEIPAEEAREALP [T14P]	3.48
LPALFTDLYSQEIKAEEAREALP [T14K]	2.34
LPALFTDLYSQEIWAEEAREALP [T14W]	2.62
LPALFTDLYSQEIMAEEAREALP [T14M]	2.45
LPALFTDLYSQEIYAEEAREALP [T14Y]	2.56
LPALFTDLYSQEIGAEEAREALP [T14G]	2.73
LPALFTDLYSQEIVAEEAREALP [T14V]	2.51
LPALFTDLYSQEIEAEEAREALP [T14E]	2.66
LPALMTDLYSQEITAEEAREALP [F5M]	5.24
LPALQTDLYSQEITAEEAREALP [F5Q]	5.24
LPALKTDLYSQEITAEEAREALP [F5K]	5.25

Variant	protein stability index
LPALVTDLYSQEITAEEAREALP [F5V]	5.07
LPALGTDLYSQEITAEEAREALP [F5G]	5.28
LPALETDLYSQEITAEEAREALP [F5E]	5.38
LPALDTDLYSQEITAEEAREALP [F5D]	5.58
LPALFTDLYNQEITAEEAREALP [S10N]	2.61
LPALFTDLYHQEITAEEAREALP [S10H]	2.85
LPALFTDLYFQEITAEEAREALP [S10F]	2.57
LPALFTDLYYQEITAEEAREALP [S10Y]	2.36
LPALFTDLYIQEITAEEAREALP [S10I]	1.95
LPALFTDLYPQEITAEEAREALP [S10P]	3.79
LPALFTDLYCQEITAEEAREALP [S10C]	2.16
LPALFTDLYLQEITAEEAREALP [S10L]	2.3
LPALFTDLYQQEITAEEAREALP [S10Q]	2.57
LPKLFTDLYSQEITAEEAREALP [A3K]	2.1
LPELFTDLYSQEITAEEAREALP [A3E]	3.66
LPGLFTDLYSQEITAEEAREALP [A3G]	2.68
LPVLFTDLYSQEITAEEAREALP [A3V]	2.49
LPILFTDLYSQEITAEEAREALP [A3I]	2.43
LPWLFTDLYSQEITAEEAREALP [A3W]	2.42
LPNLFTDLYSQEITAEEAREALP [A3N]	2.96
LPALFTDLYSNEITAEEAREALP [Q11N]	2.92
LPALFTDLYSFEITAEEAREALP [Q11F]	2.52
LPALFTDLYSSEITAEEAREALP [Q11S]	3.04
LPALFTDLYSREITAEEAREALP [Q11R]	2.26
LPALFTDLYSMEITAEEAREALP [Q11M]	2.54

Variant	protein stability index
LPAMFTDLYSQEITAEEAREALP [L4M]	3.19
LPASFTDLYSQEITAEEAREALP [L4S]	2.55
LPAIFTDLYSQEITAEEAREALP [L4I]	4.64
LPATFTDLYSQEITAEEAREALP [L4T]	2.27
LPAEFTDLYSQEITAEEAREALP [L4E]	5.24
LPAPFTDLYSQEITAEEAREALP [L4P]	4.94
LPAVFTDLYSQEITAEEAREALP [L4V]	4.59
LPAAFTDLYSQEITAEEAREALP [L4A]	3.64
LPAGFTDLYSQEITAEEAREALP [L4G]	2.69
LPAFFTDLYSQEITAEEAREALP [L4F]	2.99
LPANFTDLYSQEITAEEAREALP [L4N]	2.76
LPALFTDLYSQEITAEEARNALP [E20N]	2.2
LPALFTDLYSQEITAEEARQALP [E20Q]	2.22
LPALFTDLYSQEITAEEARHALP [E20H]	2.27
LPALFTDLYSQEITAEEARSALP [E20S]	2.28
LPALFTDLYSQEITAEEARKALP [E20K]	2.42
LPALFTDLYSQEITAEEARDALP [E20D]	2.65
LPALFTDLYSQEITAEEAREPLP [A21P]	2.69
LPALFTDLYSQEITAEEARESLP [A21S]	2.7
LPALFTDLYSQEITAEEAREYLP [A21Y]	2.3
LPALFTDLYSQEITAEEARECLP [A21C]	2.46
LPALFTDLYSQEITAEEAREELP [A21E]	3.6
LPALFTDLYSQEITAEEARETLP [A21T]	2.85
LPALFTDLYSQEITAEEAREWLP [A21W]	2.19
LPALFTDLHSQEITAEEAREALP [Y9H]	4.49

Variant	protein stability index
LPALFTDLFSQEITAEEAREALP [Y9F]	2.81
LPALFTDLCSQEITAEEAREALP [Y9C]	2.42
LPALFTDLPSQEITAEEAREALP [Y9P]	5.13
LPALFTDLQSQEITAEEAREALP [Y9Q]	5.15
LPALFTDLDSQEITAEEAREALP [Y9D]	5.38
LPALFTDLISQEITAEEAREALP [Y9I]	1.88
LPALFTDLASQEITAEEAREALP [Y9A]	2.34
TPALFTDLYSQEITAEEAREALP [L1T]	2.4
RPALFTDLYSQEITAEEAREALP [L1R]	2.22
MPALFTDLYSQEITAEEAREALP [L1M]	2.91
WPALFTDLYSQEITAEEAREALP [L1W]	2.68
APALFTDLYSQEITAEEAREALP [L1A]	2.95
KPALFTDLYSQEITAEEAREALP [L1K]	1.72
LEALFTDLYSQEITAEEAREALP [P2E]	3.51
LMALFTDLYSQEITAEEAREALP [P2M]	2.79
LAALFTDLYSQEITAEEAREALP [P2A]	2.69
LNALFTDLYSQEITAEEAREALP [P2N]	2.59
LGALFTDLYSQEITAEEAREALP [P2G]	3.03
LIALFTDLYSQEITAEEAREALP [P2I]	2.37
LRALFTDLYSQEITAEEAREALP [P2R]	2.28
LQALFTDLYSQEITAEEAREALP [P2Q]	2.69
LLALFTDLYSQEITAEEAREALP [P2L]	2.48
LDALFTDLYSQEITAEEAREALP [P2D]	3.64
LPALFTDLYSQEITAREAREALP [E16R]	2.68
LPALFTDLYSQEITAKEAREALP [E16K]	2.97

Variant	protein stability index
LPALFTDLYSQEITAIEAREALP [E16I]	2.99
LPALFTDLYSQEITAGEAREALP [E16G]	2.9
LPALFTDLYSQEITASEAREALP [E16S]	2.86
LPALFTDLYSQEITAHEAREALP [E16H]	2.75
LPALFTDLYSQEITACEAREALP [E16C]	2.51
LPALFTDLYSQEITAAEAREALP [E16A]	2.76
LPALFTDLYSQEITANEAREALP [E16N]	2.81
LPALFTDLYSQEITAMEAREALP [E16M]	2.58
LPALFTSLYSQEITAEEAREALP [D7S]	3.08
LPALFTMLYSQEITAEEAREALP [D7M]	2.71
LPALFTHLYSQEITAEEAREALP [D7H]	3.13
LPALFTQLYSQEITAEEAREALP [D7Q]	2.63
LPALFTALYSQEITAEEAREALP [D7A]	2.88
LPALFTPLYSQEITAEEAREALP [D7P]	4.4
LPALFTFLYSQEITAEEAREALP [D7F]	2.6
LPALFTVLYSQEITAEEAREALP [D7V]	2.58
LPALFTNLYSQEITAEEAREALP [D7N]	3.52
LPALFTRLYSQEITAEEAREALP [D7R]	2.77
LPALFTKLYSQEITAEEAREALP [D7K]	3.33
LPALFTDLYSQEITAEEAREAHP [L22H]	3.44
LPALFTDLYSQEITAEEAREADP [L22D]	4.62
LPALFTDLYSQEITAEEAREATP [L22T]	3.44
LPALFTDLYSQEITAEEAREANP [L22N]	4.7
LPALFTDLYSQEITAEEAREAVP [L22V]	3.17
LPALFTDLYSQEITAEEAREAIP [L22I]	2.37

Variant	protein stability index
LPALFTDLYSQEITAEEAREAYP [L22Y]	3.49
LPALFTDLYSQEITAEEAREAPP [L22P]	3.63
LPALFTDLYSQEKTAEEAREALP [I13K]	2.66
LPALFTDLYSQEATAEEAREALP [I13A]	2.97
LPALFTDLYSQEWTAEEAREALP [I13W]	2.15
LPALFTDLYSQENTAEEAREALP [I13N]	3.46
LPALFTDLYSQETTAEEAREALP [I13T]	3.09
LPALFTDLYSQEETAEEAREALP [I13E]	3.25
LPALFTDLYSQEMTAEEAREALP [I13M]	2.53
LPALFTDLYSQEYTAEEAREALP [I13Y]	2.69
LPALFTDLYSQERTAEEAREALP [I13R]	2.1
LPALFTDLYSQELTAEEAREALP [I13L]	2.71
LPALFTDIYSQEITAEEAREALP [L8I]	2.59
LPALFTDMYSQEITAEEAREALP [L8M]	2.24
LPALFTDKYSQEITAEEAREALP [L8K]	2.39
LPALFTDVYSQEITAEEAREALP [L8V]	2.81
LPALFTDTYSQEITAEEAREALP [L8T]	3.69
LPALFTDGYSQEITAEEAREALP [L8G]	5.28
LPALFTDPYSQEITAEEAREALP [L8P]	5.43
LPALFTDLYSQEITAEEEREALP [A18E]	2.83
LPALFTDLYSQEITAEEQREALP [A18Q]	2.86
LPALFTDLYSQEITAEEPREALP [A18P]	3.08
LPALFTDLYSQEITAEEYREALP [A18Y]	2.35
LPALFTDLYSQEITAEESREALP [A18S]	2.72
LPALFTDLYSQEITAEERREALP [A18R]	2.45

Variant	protein stability index
LPALFTDLYSQEITAEETREALP [A18T]	3.04
LPALFTDLYSQEITAEEKREALP [A18K]	2.26
LPALFTDLYSQEITAEEDREALP [A18D]	3.24
LPALFTDLYSQEITAEEMREALP [A18M]	2.75
LPALFTDLYSQEITAEEIREALP [A18I]	2.57
LPALFTDLYSQEITAEEAHEALP [R19H]	2.82
LPALFTDLYSQEITAEEAKEALP [R19K]	2.79
LPALFTDLYSQEITAEEADEALP [R19D]	3
LPALFTDLYSQEITAEEAPEALP [R19P]	2.93
LPALFTDLYSQEITAEEAFEALP [R19F]	2.68
LPALFTDLYSQEITAEEATEALP [R19T]	2.9
LPALFTDLYSQEITAEEANEALP [R19N]	2.71
LPALFTDLYSQEITAEEASEALP [R19S]	2.89
LPALFTDLYSQWITAEEAREALP [E12W]	2.21
LPALFTDLYSQFITAEEAREALP [E12F]	3.01
LPALFTDLYSQLITAEEAREALP [E12L]	3.04
LPALFTDLYSQSITAEEAREALP [E12S]	3.13
LPALFTDLYSQVITAEEAREALP [E12V]	3.38
LPALFTDLYSQGITAEEAREALP [E12G]	3.78
LPALFTDLYSQDITAEEAREALP [E12D]	2.99
LPALFTDLYSQYITAEEAREALP [E12Y]	3.07
LPALFTDLYSQRITAEEAREALP [E12R]	2.59
LPALFTDLYSQHITAEEAREALP [E12H]	3.39
LPALFTDLYSQIITAEEAREALP [E12I]	3.15
LPALFRDLYSQEITAEEAREALP [T6R]	3.15

Variant	protein stability index
LPALFNDLYSQEITAEEAREALP [T6N]	4.77
LPALFLDLYSQEITAEEAREALP [T6L]	3.54
LPALFADLYSQEITAEEAREALP [T6A]	2.34
LPALFFDLYSQEITAEEAREALP [T6F]	4.22
LPALFSDLYSQEITAEEAREALP [T6S]	2.55
LPALFYDLYSQEITAEEAREALP [T6Y]	4.5
LPALFTDLYSQEITAEEAREALT [P23T]	4.6
LPALFTDLYSQEITAEEAREALC [P23C]	4.21
LPALFTDLYSQEITAEEAREALG [P23G]	4.69
LPALFTDLYSQEITAEEAREALY [P23Y]	3.49
LPALFTDLYSQEITAEEAREALQ [P23Q]	4.85
LPALFTDLYSQEITAEEAREALL [P23L]	4.01
LPALFTDLYSQEITAEEAREALD [P23D]	5.15
LPALFTDLYSQEITAEEAREALN [P23N]	4.89
LPALFTDLYSQEITAEEAREALA [P23A]	4.14
LPALFTDLYSQEITAEEAREALW [P23W]	3
LPALFTDLYSQEITAEEAREALH [P23H]	4.15
LPALFTDLYSQEITAEEAREALI [P23I]	3.59
LPALFTDLYSQEITAEEAREALE [P23E]	5
